Results published in PMC9636275 (Nature Communications, 2022).
Positions count from the first letter of the chain named. In names and notes the source's numbering stands.

T1: CobB (Escherichia coli, UniProt P75960)
T1 sequence (P75960 1-279): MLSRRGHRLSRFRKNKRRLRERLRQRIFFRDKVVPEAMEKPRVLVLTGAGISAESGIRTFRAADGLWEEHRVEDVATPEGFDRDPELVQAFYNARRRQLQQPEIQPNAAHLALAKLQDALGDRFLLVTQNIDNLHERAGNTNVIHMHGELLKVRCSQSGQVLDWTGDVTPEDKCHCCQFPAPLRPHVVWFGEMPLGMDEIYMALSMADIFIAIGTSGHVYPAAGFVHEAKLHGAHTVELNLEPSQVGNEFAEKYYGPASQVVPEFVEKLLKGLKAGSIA

B1: PncB^K381Q (protein, UniProt P18133 2-400, looked up, variant K381Q)
Nicotinate …: TQFASPVLHSLLDTDAYKLHMQQAVFHHYYDVHVAAEFRCRGDDLLGIYADAIREQVQAMQHLRLQDDEYQWLSALPFFKADYLNWLREFRFNPEQVTVSNDNGKLDIRLSGPWREVILWEVPLLAVISEMVHRYRSPQADVAQALDTLESKLVDFSALTAGLDMSRFHLMDFGTRRRFSREVQETIVKRLQQESWFVGTSNYDLARRLSLTPMGTQAHEWFQAHQQISPDLANSQRAALAAWLEEYPDQLGIALTDCITMDAFLRDFGVEFASRYQGLRHDSGDPVEWGEKAIAHYEKLGIDPQSKTLVFSDNLDLRKAVELYRHFSSRVQLSFGIGTRLTCDIPQVKPLNIVIKLVECNGKPVAKLSDSPGKTICHDQAFVRALRKAFDLPHIKKAS
B2: PncB: nicotinate phosphoribosyltransferase, wild type (protein, UniProt P18133 2-400, looked up)
Nicotinate …: B1 Nicotinate … with Q380K
B3: PncB^K381R (protein, UniProt P18133 2-400, looked up, variant K381R)
Nicotinate …: B1 Nicotinate … with Q380R

Legend:
YiaC = assay: ITC affinity of recombinant YiaC with acyl-CoA; type: binding, E. coli; details: for binding (Bin): result in words
Protocol: This method was described previously. […] The volume of the first injection was 0.5 μl of 500 μM actyl-CoA (or actylated peptides), and the following 18 injections were 2.0 μl. The binding isotherm was fit with the Origin 8.0 software (OriginLab). Each group had three biological repetitions.

CobB = target: T1, CobB; details: 10 mM NAM, 37 °C, 2 h; result in words
PncB = assay: In vitro assay for PncB activity; type: biochemical, E. coli; details: for enzymatic activity vs wild type: in vitro, result in words
Protocol: The activity of purified PncB, PncB^K381Q, and PncB^K381R were measured as described. In detail, the purified proteins were added in the reaction buffer [50 mM Tris-HCl, 10 mM MgCl2, 2.5 mM dithiothreitol, 1 mM ATP, […] of bovine serum albumin, 1 mM nicotinic acid and 1 mM 5-phosphoribosyl-1-pyrophosphate (pH 7.5)] at 37 °C for 2 h. The reactions were measured by HPLC-MS/MS to detect the production of […]. Separation was performed on a Vanquish UHPLC system (Thermo Fisher Scientific) with an ACQUITY UPLC BEH C18 column (100 × 2.1 mm, 1.7 μm). Mobile phase A was 0.1% formic acid in water. Mobile phase B was 0.1% formic acid in methanol. […] Injection volume was 2 μl. Nicotinic acid detection was performed on an Orbitrap Exploris 480 spectrometer (Thermo Fisher Scientific, Bremen, Germany) operated with ESI probe. Data were acquired under the following parameters: sheath gas ((N2), 35 Arb; aux gas (N2), 10 Arb; spray voltage, 3500 V (positive mode); and in transfer tube temperature, 320 °C. An SIM was applied for data acquisition.

[1] = replicate 1, 37 °C, 2 h, HPLC-MS/MS

| Molecule | binding (Bin) (YiaC) | Kd (YiaC; cell 50 μM YiaC titrated with 500 μM acyl-CoA, 37 °C (method), three biological repetitions) | inhibition of CobB delactylation (CobB) | inhibition, deacetylation compared with delactylation (CobB) | enzymatic activity vs wild type (PncB) | Residual percentage of reaction (PncB; replicate 1, relative to C) | Determination of nicotinic acid (PncB; [1]) | Determination of nicotinic acid (PncB; replicate 2) | Residual percentage of reaction (PncB; replicate 2, relative to C) | Determination of nicotinic acid (PncB; replicate 3) | Residual percentage of reaction (PncB; replicate 3, relative to C) |
| --- | --- | --- | --- | --- | --- | --- | --- | --- | --- | --- | --- |
| Succinyl coenzyme A [succinyl-CoA, reference compound] | no binding | – | – | – | – | – | – | – | – | – | – |
| CC(=O)SCCNC(=O)CCNC(=O)[C@H](O)C(C)(C)COP(=O)(O)OP(=O)(O)OC[C@H]1O[C@@H](n2cnc3c(N)ncnc32)[C@H](O)[C@@H]1OP(=O)(O)O [acetyl-CoA, Acetyl coenzyme A, reference compound] | Binding | 5.57 µM | – | – | – | – | – | – | – | – | – |
| NC(=O)c1cccnc1 [NAM, nicotinamide, reference compound] | – | – | the delactylation reaction could be inhibited by nicotinamide (NAM) | more effective for deacetylation than delactylation | – | – | – | – | – | – | – |
| B1 | – | – | – | – | significantly decreased | 0.3998 | 117663852 | 149776081 | 0.4956 | 106239984 | 0.3796 |
| B2 | – | – | – | – | – | 0.08118 | 23891965 | 25485329 | 0.08433 | 18539215 | 0.06624 |
| B3 | – | – | – | – | increased | 0.01962 | 5775041 | 6028387 | 0.01995 | 5793798 | 0.0207 |
